Data taken from publication PMC2110899, “Exchanging Murine and Human Immunoglobulin Constant Chains Affects the Kinetics and Thermodynamics of Antigen Binding and Chimeric Antibody Autoreactivity” (PLoS ONE, 2007).
Ends that are not written are not given here.

How the values were obtained:
[1] = biological target: GXM-binding murine monoclonal antibody 18B7 (mouse); assay: SPR; BIAcore 3000; antibody immobilised on a CM5 chip through primary amino groups; peptide P1 1.56 µM to 200 µM at 100 µl/min in 0.2 mM K2HPO4/KH2PO4 pH 6.5, 150 mM KCl, 0.01% Tween 20; 25°C; global fit to a two-state model, equilibrium constants calculated from the rate constants
[2] = biological target: Mouse-human chimeric antibody 18B7 (IgG1) (mouse | human); assay: as above
[3] = biological target: deglycosylated form of mAb 18B7 (mouse); assay: as above
[4] = biological target: T1, thyroglobulin (Bos taurus (assumed), UniProt P01267); assay: ELISA; polystyrene plates coated overnight at 4°C with antigen at 5 µg/ml in bicarbonate buffer pH 9.6; blocked with 1% BSA in TBS; Abs added at 40 µg/ml in 1% BSA/TBS and serially diluted, overnight at 4°C; alkaline-phosphatase conjugated anti-mouse or anti-human IgG; details: both partners purified
T1 construct: thyroglobulin (Sigma); source: bought: Sigma
T1 sequence (P01267 20-2769): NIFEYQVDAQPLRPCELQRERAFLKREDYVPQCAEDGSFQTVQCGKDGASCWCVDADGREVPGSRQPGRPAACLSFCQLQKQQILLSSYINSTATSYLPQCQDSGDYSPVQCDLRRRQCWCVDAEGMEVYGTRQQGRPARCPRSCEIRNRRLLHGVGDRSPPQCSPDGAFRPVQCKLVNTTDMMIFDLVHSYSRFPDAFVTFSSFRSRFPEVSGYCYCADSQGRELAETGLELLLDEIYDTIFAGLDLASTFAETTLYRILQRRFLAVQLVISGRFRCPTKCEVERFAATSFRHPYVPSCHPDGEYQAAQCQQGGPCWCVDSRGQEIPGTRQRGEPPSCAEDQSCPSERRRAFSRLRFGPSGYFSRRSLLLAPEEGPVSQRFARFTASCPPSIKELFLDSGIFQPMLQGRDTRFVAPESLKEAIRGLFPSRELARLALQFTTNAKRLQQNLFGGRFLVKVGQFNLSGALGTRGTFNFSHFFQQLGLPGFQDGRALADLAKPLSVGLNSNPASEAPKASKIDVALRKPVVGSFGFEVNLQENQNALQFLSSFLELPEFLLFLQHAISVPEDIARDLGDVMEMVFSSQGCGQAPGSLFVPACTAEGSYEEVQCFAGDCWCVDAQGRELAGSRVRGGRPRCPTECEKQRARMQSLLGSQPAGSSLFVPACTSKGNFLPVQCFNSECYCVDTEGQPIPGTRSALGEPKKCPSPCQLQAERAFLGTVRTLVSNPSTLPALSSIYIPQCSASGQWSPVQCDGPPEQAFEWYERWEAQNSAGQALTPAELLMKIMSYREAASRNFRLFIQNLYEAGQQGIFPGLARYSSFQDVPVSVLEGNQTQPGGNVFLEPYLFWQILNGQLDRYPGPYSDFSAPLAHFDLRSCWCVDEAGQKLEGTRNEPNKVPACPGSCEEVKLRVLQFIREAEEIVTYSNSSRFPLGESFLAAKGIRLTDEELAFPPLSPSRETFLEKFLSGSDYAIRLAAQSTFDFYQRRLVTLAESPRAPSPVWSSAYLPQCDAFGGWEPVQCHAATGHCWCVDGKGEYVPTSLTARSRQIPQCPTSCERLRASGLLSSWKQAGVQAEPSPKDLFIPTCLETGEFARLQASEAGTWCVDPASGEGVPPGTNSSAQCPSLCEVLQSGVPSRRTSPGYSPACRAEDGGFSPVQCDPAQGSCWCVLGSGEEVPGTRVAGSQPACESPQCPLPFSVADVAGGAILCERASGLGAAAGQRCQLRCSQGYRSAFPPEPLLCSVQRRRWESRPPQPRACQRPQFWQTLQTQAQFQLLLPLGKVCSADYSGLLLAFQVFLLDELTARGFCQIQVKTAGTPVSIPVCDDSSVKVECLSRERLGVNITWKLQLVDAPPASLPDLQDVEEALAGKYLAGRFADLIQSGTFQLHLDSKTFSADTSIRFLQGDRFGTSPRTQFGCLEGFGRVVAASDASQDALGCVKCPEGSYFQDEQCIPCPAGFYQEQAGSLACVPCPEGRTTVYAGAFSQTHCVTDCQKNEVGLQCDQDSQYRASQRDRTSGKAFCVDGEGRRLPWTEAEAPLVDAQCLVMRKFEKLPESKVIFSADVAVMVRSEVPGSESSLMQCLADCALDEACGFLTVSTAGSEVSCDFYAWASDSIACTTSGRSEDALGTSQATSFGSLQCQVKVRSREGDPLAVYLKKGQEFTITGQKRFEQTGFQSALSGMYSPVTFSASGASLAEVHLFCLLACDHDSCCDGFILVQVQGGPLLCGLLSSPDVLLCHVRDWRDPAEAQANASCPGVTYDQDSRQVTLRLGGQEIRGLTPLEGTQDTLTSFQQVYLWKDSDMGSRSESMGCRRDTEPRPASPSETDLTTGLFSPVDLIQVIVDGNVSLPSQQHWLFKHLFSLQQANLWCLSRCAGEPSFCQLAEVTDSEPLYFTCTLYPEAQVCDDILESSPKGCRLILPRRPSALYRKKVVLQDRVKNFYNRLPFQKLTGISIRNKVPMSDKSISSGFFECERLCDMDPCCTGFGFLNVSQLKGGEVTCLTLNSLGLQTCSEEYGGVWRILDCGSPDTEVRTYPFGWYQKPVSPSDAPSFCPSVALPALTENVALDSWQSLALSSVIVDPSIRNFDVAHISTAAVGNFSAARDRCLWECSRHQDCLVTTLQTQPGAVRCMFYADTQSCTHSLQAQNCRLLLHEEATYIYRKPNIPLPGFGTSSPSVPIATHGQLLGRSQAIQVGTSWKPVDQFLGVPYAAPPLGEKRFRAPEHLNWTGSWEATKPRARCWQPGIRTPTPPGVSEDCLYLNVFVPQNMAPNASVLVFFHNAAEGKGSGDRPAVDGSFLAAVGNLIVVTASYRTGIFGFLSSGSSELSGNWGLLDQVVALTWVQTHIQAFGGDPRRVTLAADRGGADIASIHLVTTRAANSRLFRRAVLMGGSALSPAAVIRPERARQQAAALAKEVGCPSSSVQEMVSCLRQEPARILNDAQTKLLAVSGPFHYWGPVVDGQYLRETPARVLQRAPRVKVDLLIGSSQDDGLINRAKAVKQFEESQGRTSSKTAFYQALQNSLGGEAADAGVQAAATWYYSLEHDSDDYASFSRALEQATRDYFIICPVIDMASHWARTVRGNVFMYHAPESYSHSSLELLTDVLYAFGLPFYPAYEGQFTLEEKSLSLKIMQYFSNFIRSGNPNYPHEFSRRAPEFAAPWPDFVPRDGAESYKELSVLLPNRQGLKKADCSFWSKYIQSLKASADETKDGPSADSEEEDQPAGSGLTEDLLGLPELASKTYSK

SPNQHTPPWMLK (also: biotinylated, position not given here) [Peptide mimetic of GXM P1]
Kd [1]: 2330 µM
Kd [2]: 541 µM
Kd [3]: 1070 µM

B1: Mouse-human chimeric antibody 18B7 (IgG1) (antibody, V domains shown)
VH: DVKLVESGGGLLKLGGSLKLSCVASGFSFSSYFMSWVRQTPEKRLELVAMINNNGDKTYYPDTVRGRFTISRDNAKNTLYLQMSSLKSEDTAMYYCARRDGTFGNHFDYWGQGTTLTVSS
VL: DVVMTQAPLALPVSLGDQASISCRSSQSLAHSNGNTYLHWYLQKPGQSPKLLIYKVSNRFSGVPDRFSGSGSGTDFTLKISRVEAEDLGVYFCSQSTHVPWTFGGGTKLEIK
notes: as the VH of m1 (identical V regions); human IgG1 (γ1) heavy chain constant region; as the VL of m1 (identical V regions); light chain constant region; IgG1; also called chAb 18B7; ch18B7; source: generated by cloning and transfection as described [36], purified by protein L agarose beads
binding result [4]: binds

B2: GXM-binding murine monoclonal antibody 18B7 (antibody, V domains shown)
VH: DVKLVESGGGLLKLGGSLKLSCVASGFSFSSYFMSWVRQTPEKRLELVAMINNNGDKTYYPDTVRGRFTISRDNAKNTLYLQMSSLKSEDTAMYYCARRDGTFGNHFDYWGQGTTLTVSS
VL: DVVMTQAPLALPVSLGDQASISCRSSQSLAHSNGNTYLHWYLQKPGQSPKLLIYKVSNRFSGVPDRFSGSGSGTDFTLKISRVEAEDLGVYFCSQSTHVPWTFGGGTKLEIK
notes: VH of mAb 18B7; murine IgG1 heavy chain constant region; VL of mAb 18B7; murine light chain constant region; Murine IgG1; also called mAb 18B7; m18B7
binding result [4]: binds

B3: deglycosylated form of mAb 18B7 (antibody, V domains shown)
VH: DVKLVESGGGLLKLGGSLKLSCVASGFSFSSYFMSWVRQTPEKRLELVAMINNNGDKTYYPDTVRGRFTISRDNAKNTLYLQMSSLKSEDTAMYYCARRDGTFGNHFDYWGQGTTLTVSS
VL: DVVMTQAPLALPVSLGDQASISCRSSQSLAHSNGNTYLHWYLQKPGQSPKLLIYKVSNRFSGVPDRFSGSGSGTDFTLKISRVEAEDLGVYFCSQSTHVPWTFGGGTKLEIK
notes: as the VH of m1; murine IgG1 heavy chain constant region, as in m1; as the VL of m1; as the light chain constant region of m1; Same chains as m1 without the N-glycan; PNGase F is known to turn the glycosylated Asn into Asp; also called 18B7dg; mAb 18B7dg; source: mAb 18B7 from hybridoma culture supernatants (protein G), incubated with PNGaseF at 37°C for 24 h, dialyzed against PBS
binding result [4]: binds
